These results are taken from the DeepSol protein solubility set.

The nature of this series: soluble on expression in E. coli; label from the status in PepcDB or PDB records.
Regarding “MGSDKIHHHHHHMDNLPDKLQNIVEEVDHQIAPKLEEIEDQIVYNQAKVLKAFQDNNVAEADLNGATGYGDDDIGRDKLDKVYAQVFDTEDALVRPQFVSGTHTLFTALSGNLKYGDTLTYLTGMPYDTLQKVIGLTDDKRGTLAEKGVKFSYVPLSDENLIDYDVAEKILKRDQPKMVAIQRSRGYSTRKTFTVEQIKEMISFVKKVSPNSIIFIDNCYGEFAEKYEPTEYGADLMAGSLIKNAGGGLAKTGGYIVGKKDLVENAKLQLTAPGCTDEGATIGHLHDLYEGFFLAPNVTGMAEKGMIFAAALFEKMGLNVTPAWDEKRSDIIETIIFNDPEKMVKFVQEVQKNSPIDSFVTPEAVHMEGYEDKIIMAAGNFVSGSTIEFSADGPIRPPYAVYMQGGLTYAHDKVAIINSVRDTFFNKK”, the “soluble on expression in E. coli” value was “not soluble”.
Next, “MGGDADSPRERIEALAEDDHVEMRRAVDSAITSDAAAIIVIAGVGGATGSVIAPKLTDALQRIYDRPVYAVSVLPATHEEVPPENPARAIAAFESAANAQLVFDNDAWVDDRNDVEDVTDGLNAELAMRLGALFSAGEAVTAESVGQRVVDASEVISTLDEGGLATIGFARQPLGTDGDDGSLLDRARELVGMDETTVDEVESIKAVETTLRQATNGRLTFDCPRDAARSGLLVVSGPPEWLHQTAVSDGQSWLADEIGSVQLRTGDNPMPGGDELTILVLLGGIRGAPRIKEIQAATDLEHHHHHH”: “not soluble”; “MSLAESAFSERIVQNLLDTDFYKLTMMQAVLHNYPNAEVEWEFRCRNQEDLRLYLPAIREQLEYLAGLAISDEQLAFLERIPFLAPDFIRFLGLFRFNPRYVQTGIENDEFFLRLKGPWLHVILFEVPLLAMISEVRNRARYPAATVEQARERLQEKFDWLRREASAEELAGFKMADFGTRRRFSYRVHEAVVSGLKEDFPGCFVGTSNVHLARKLDLKPLGTMAHEWLMAHQQLGPRLIDSQSAALDCWVREYRGLLGIALTDCITTDAFLRDFDLYFAKLFDGLRHDSGDPLLWAEKTIAHYLKLGIDPLTKTLVFSDGLDLPRALKIYRALQGRINVSFGIGTHFTCDLPGVEPMNIVVKMSACNGHPVAKISDTPGKAQCRDPDFIHYLKHVFQVAEGHHHHHH”: “soluble”; “MGSDKIHHHHHHMSDSTTPETIIVIGASSLMAQAFIAKTFTQQAYTDQTVIQQASSQQSKRHDTSPLQIITVSRQNKLILHDLTDNISHHHFSCDYQQASIEQCVTNIAAIAGKVTRIVMCNGILHSKNPQSADSILGPHSANDSTLMPEKRIEDIDALSLEQLFYANSIVPMLWLSALTSLLSLPRHKVAGEQKCVISILSARVGSISDNRLGGWYGYRASKAALNMLIKTTAVEYARRLKRVKLIAFHPGTTDTPLSKPFQANVPAGKLFTPEFVASQLYNIMADIEPNGEASYLDWQGKEISW”: “not soluble”.
Next, “MTLPKIGKPATRALNSQGIYTLEAVSQYTKSSLMEMHGVGPKAISILEQALFQHQLHFKTEVQSSLPFKLTGDVSCNHAPKRQQMIDFIVATAALDIELLRSLVTTEFIWSVPGHFDIYGPQILIQELSNYYNQVASLNIHSNITHGCLGSMHGIEILKTGKEIHFAHFFEFENHKKDAKLSKVTSYIVVA”: “not soluble”; “MGSDKIHHHHHHMKKTSFIYLLLLIALGLSSCQQEKTFKVLQFNIWQEGAVVKGGFDAIADEIVRSNADFVTLSEVRNYHQTRFCDRIVEALQQRGQTYYSFYTEDSGLLSRYPITDSTTVYPLNDDRGSMYKAITHIGDTEVALYTAHLDYRNCAYYDARGYDGNTWDEEPPVTNLDTLLWLNEQSVRDDAIACFLKEAKKDREAGRIVILGGDFNEPSHLDWTEATKDMRDHQGLVVPWHVSVMLEKDGFKDTYREIFPNPVTHPGLTCPADCKDIALEKLVWSPKADDRDRIDFIHYAPFEGLTLTDVCIIGPKGDILRGQRETEETSDPIMTPLGIWPTDHKAVLATFHLK”: “not soluble”.
Next, “SRSFRPLYRLIGWIDRFRVNEPVQELVMAKTDVTEFRKLSEAMLRTAHHNVEVFEQQKEFISHASHELQTPLAISRNKLEMLLQDPSLNEQQLEQIYKAIQSINHIVQLNKTLLLYSKIENHQFPEEESIDVNELLHNLAEEYEAIFANRRIRIVWSRSEPMVLSMNPTLAKVLLSNLLKNAYLHNLERDGEIHIDLTSMHCSIANTGVKNALDETLIFERFYHDMKQAHSSGLGLPIARSICQLYGLRLTYRFENGKHTFSIGKEA”: “not soluble”; “MNRVYCTARSFRTSVKSNGWVHKWSRFKRWQEMQAAHVENVQEKQRNKNFIRLPTGLYITPERPDDLNPKKAPADMTRKDTGQLPMELLTWHTQMRYVDHSIDNIKRYRRYKKFQHMQYDQRVIPERLLFLGPDLAAAHFLVHRGAAVKFVGDDNWYKKDKWNRYSLPGRKVDNLFIEAIDASGTQIMFEGLENLENLQKLRLLRLANSEYVDDWCIGRIGGLLPNLEMLDLSGCHRISSKGLMGLKASKNLKFLRLEGLSGIRNLGKSALILEDLLPKLQILGMDYELSFRQIEAENRLLEQERVVLDGRGNAFVEDDNSRLFLVMSTSSDDKAVTDDHDNPIMTSTVRREIPKMDDAEFEEINALSGGKLRHLLVGSPSGYEWTETTERILEHEAELNLTDNVITDPKMLPRGKRPEFELPEHRSRLEDAKAQFLKEFGDFEENSDKEQLKSH”: “not soluble”; “MGHKLAFNFNLEINGSDTHSTVDVYLDDSQIITFDGKDIRPTIPFMIGDEIFLPFYKNVFSEFFSLFRRVPTSTPYEDLTYFYECDYTDNKSTFDQFYLYNGEEYTVKTQEATNKNMWLTTSEFRLKKWFDGEDCIMHLRSLVRKMEDSKRNTG”: “not soluble”.
In the case of “MAHHHHHHMQTVPSFQKTTSFHCSKAGRVLYSFREASRISGTHLPIVSAVDSYTLDSVFSEEVRPSFKSFAVDPSDRYCAAILDQDIDSVIRLFSLSAGPYPDHGAFASPAVQEEQDSAMGADEEEMEQWSIEDDDYDTDDSTDSNDDEFEEDEDDDDDSYDEEDAEEEFEEWEEEDEEESSPGTGSGSDEQEGTQASSRHAN”, the “soluble on expression in E. coli” value is listed as “soluble”.
Regarding “MVQEAPAALPTEPGPSPVPAFLGKLWALVGDPGTDHLIRWSPSGTSFLVSDQSRFAKEVLPQYFKHSNMASFVRQLNMYGFRKVVSIEQGGLLRPERDHVEFQHPSFVRGREQLLERVRRKVPALRGDDGRWRPEDLGRLLGEVQALRGVQESTEARLRELRQQNEILWREVVTLRQSHGQQHRVIGKLIQCLFGPLQAGPSNAGGKRKLSLMLDEGSSCPTPAKFNTCPLPGALLQDPYFIQSPLPETNLGLSPHRARGPIISDIPEDSPSPEGTRLSPSSDGRREKGLALLKEEPASPGGDGEAGLALAPNECDFCVTAPPPLPVAVVQAILEGKGSFSPEGPRNAQQPEPGDPREIPDRGPLGLESGDRSPESLLPPMLLQPPQESVEPAGPLDVLGPSLQGREWTLMDLDMELSLMQPLVPERGEPELAVKGLNSPSPGKDPTLGAPLLLDVQAALGGPALGLPGALTIYSTPESRTASYLGPEASPSP”, the “soluble on expression in E. coli” value is given as “soluble”.
Next, “SLMVLAMESRVAPEIPGLIQPGNVTQDLKMMVCKLLNSPKPTKTFPGSQPVSFQHSDVEEKLLAHDYYVCEKTDGLRVLMFIVINPVTGEQGCFMIDRENNYYLVNGFRFPRLPQKKKEELLETLQDGTLLDGELVIQTNPMTKLQELRYLMFDCLAINGRCLTQSPTSSRLAHLGKEFFKPYFDLRAAYPNRCTTFPFKISMKHMDFSYQLVKVAKSLDKLPHLSDGLIFTPVKAPYTAGGKDSLLLKWKPEQENTVDFKLILDIPMVEDPSLPKDDRNRWYYNYDVKPVFSLYVWQGGADVNSRLKHFDQPFDRKEFEILERTYRKFAELSVSDEEWQNLKNLEQPLNGRIVECAKNQETGAWEMLRFRDDKLNGNHTSVVQKVLESINDSVSLEDLEEIVGDIKRCWDERRANMAGGSGRPLPSQSQNATLSTSKPVHSQPPSNDKEPKYVDEDDWSD”: “soluble”.
In the case of “MDISIEFGLYPTESDLTELQQYFPDTNLKKLYEVEAYHKKLETILDSEFSTERESLIAEIDELESQLTTLNQELQELGNIPNLSSEYLENYSKLTATINALKEQNEAYLKESGLSKEKSETDADLKRSTEDILLDLEVKINSKMREVNNILYPDIRKAPQINLNAHNSYSFYTPDDDGTGTKFKGMIVFDLVMLYLTNLPALAHDSLLLSNVSYQATEALLKLYDQSRSLNKQVFLVFDKASSYSPDANQLLSENTVLRLSSNGNELYGISWNKGENSDEI”, the “soluble on expression in E. coli” value is reported as “not soluble”.
Next, “MAASGEEDMSELSPAAAPNLDWYEKPEETHAPEVDLETVIPPAQEPSNPAEPFCPRDLVPVVFPGPVSQEDCCQFTCELLKHILYQRHQLPLPYEQLKHFYRKAPQAEDTARKKAWLATEARNRKCQQALAELESVLSHLRDFFARTLVPQVLILLGGNALSPKEFYELDLSRLAPFGVDQGLNTAACLRRLFRAIFLADPFSELQTPPLMGTIVMVQGHRDCGEDWFQPKLNYRVPSRGHKLTVTLSCGRPSVPAMASEDYIWFQAPVTLKGFHE”: “not soluble”; “MLGGFVMDLFPFLPGVRISLQSGWLPSGAADALLAGLLEGVPWEVHRIHIFGREVNSPRLSCWVGDPQASYRYSGRCFQPRPWWPALAELRMCLEGETGAVFNSVLLNRYRHGGDAIGWHSDDEAELGIDPLIASVSLGASRRFVFRHRRERHLRAECVLSHGDLLLMGGTTQRDYQHALPRTLRVVGERVNLTFRRILMLEHHHHHH”: “soluble”; “MGNIVKPFKQQPSSFAYQPLTVPLIPEVEAQSENLRVFSFKEWMKATKKSRQDRVVIRDDHYIRSFYKGYIDNTTFAPSRTKTGTPVSVVEYLHGSSQALQEWVDIFGVILLELLVGSQDRSTALKNQSSDWTGSFLPDNYKIGEIIDPRIGSDYPVDAATKIGLGPNVRCPYIGHRDMDKC”: “soluble”.
Next, “MSNIVYLTVTGEQQGSISAGCGTSESTGNRWQSGHEDEIFTFSLLNNINNTGLGSQFHGITFCKLIDKSTPLFINSINNNEQLFMGFDFYRINRFGRLEKYYYIQLRGAFLSAIHHQIIENQLDTETITISYEFILCQHLIANTEFSYLALPENYNRLFLPNSKNQTNNRFKTLNSKAIGRLLAAGGVYNGNIEGFRDTAEKLGGDAIKGYDQILNEKTAGIAIATASILLTKRSNVDTYTEINSYLGKLRGQQKLLDGIDIIEIIYIKRPSKDLANLRKEFNKTVRKNFLIKLAKTSEASGRFNAEDLLRMRKGNVPLNYNVHHKLSLDDGGTNDFENLVLIENEPYHKVFTNMQSRIAKGILVGESKITPWAIPSGSIYPPMKNIMDHTK”: “not soluble”; “MATVQVDIVTPERKVFQGEADIVIARGVEGELGVMAGHIPLVTPLKTAPVRIKQGDKETLIAVSGGFLEVRPDKVNILADTAELPEEIDVERAKKAKARHETILKRLDKTDKDYLRHKRALERAEVRLQVANSKS”: “soluble”; “MNIVNKDSKNTFTRMCIGEAIIKLLKDTDFDKIRITSVAKCAGVSRITFYKYYESIHDALCDYLNIIIIEYLEECANNPENGSFLDYSHILFALEFFNRYKDYFLTLSRCGLHSILINSINNFMSEHFTNPKNYSEYRLYCYSGGLLNTFLKWEENGCDCDAGEIARTLEELYS”: “not soluble”.
Next, “GMTSSFTDYCKFFNRILSEVQETQEQAIIKGAHLVSEAVMNGGRFYVFGSGHSHMIAEEIYNRAGGLALVTAILPPELMLHERPNKSTYLERIEGLSKSYLKLHQVTNKDVIMIISNSGRNTVPVEMAIESRNIGAKVIAMTSMKHSQKVTSRHKSGKKLYEYADVVLDNGAPVGDAGFQIANSEIYSGATSDSIGCFLAQALIVETLHLLVQQGFEPPVFKSSNVDGADLYNDKIFNEYVKW”: “soluble”.
